Experimental data reported in US20210009693A1 (MABSPACE BIOSCIENCES SUZHOU, published 2021).
Like-named read-outs stand apart in the source and are kept apart here. One block for each binder: values may come before it.

What was measured:
[1] = biological target: T1, Cynomolgus PD-L1/CD274 with His tag (cPD-L1-His) (cynomolgus); test: ELISA on coated cynomolgus PD-L1-his
T1 construct: range 19-238; ACRO Biosystem PD1-C52H4; also called cynomolgus (cyno) PD-L1-his; cynomolgis PD-L1-his
Protocol: (§1) High-binding clear polystyrene 96-well plates (Nunc) were coated with 100 μl/well of a 0.5 μg/ml human or cynomolgus (cyno) PD-L1-his in high pH coating buffer and incubated overnight at 4° C. Then plates were washed once on an automatic plate washer using washing buffer (PBS+0.1% Tween 20 (Sigma)). 200 μl of blocking buffer (PBS+1% BSA+1% normal goat serum+0.05% Tween-20) was added to each well and incubated for 2 hours at room temperature. Then add serial diluted antibodies with dilution buffer (PBS+1% BSA+1% normal goat serum+0.01% Tween-20) and incubated for 1 hour at RT. The plates were then washed 3 times using the method described above. […] After that the ELISA plates were allowed to incubate for 60 min at RT then plates were washed 3 times with 250 μl/well washing buffer. Finally, 100 μl/well of TMB was added to each well and the reaction was terminated using 0.64M H₂SO₄. The plates were read on a Thermo Multiscan FC at 450 nM (see FIG. 6A to 6E).

[2] = biological target: T2, Recombinant Mouse PD-L1/CD274 Protein (mPD-L1-his) (mouse, UniProt Q9EP73 19-238); test: ELISA, plate coated with mouse PD-L1-his
T2 construct: range 19-238; ACRO Biosystem PD1-M5220; also called mouse PD-L1-his

[3] = biological target: T3, Recombinant Human PD-L1/CD274 Protein (hPD-L1-his) (human, UniProt Q9NZQ7 19-238); test: ELISA on coated hPD-L1-his; bound at pH7.4, then 2 h at pH5.5
T3 construct: range 19-238; ACRO Biosystem PD1-H5229, made in HEK293; also called human PD-L1-his; hPD-L-his

[4] = biological target: T3, Recombinant Human PD-L1/CD274 Protein …; test: ELISA on coated human PD-L1-his
Protocol: as §1

[5] = biological target: T3, Recombinant Human PD-L1/CD274 Protein …; test: ELISA on coated hPD-L1-his; bound at pH7.4, then 2 h at pH7.4
[6] = biological target: T4, wild type human PD-L1-Fc protein (SEQ ID NO: 107) (human); test: ELISA on captured PD-L1-Fc, as in Example 18A
T4 construct: Extracellular human PD-L1 (amino acid 19-238) with Fc fragment of human IgG1, expressed in 293T cells and used as culture supernatant; also called WT PD-L1; wild-type PD-L1

[7] = biological target: T5, human PD-L1-Fc mutant E58A (human); test: ELISA on captured PD-L1-Fc, as in Example 18A
T5 construct: Position 58 counts on native human PD-L1 (NP_054862.1); also called E58A mutant

[8] = biological target: T6, human PD-L1 expressed on cells (human, UniProt Q9NZQ7 19-290); test: FACS, IFN-gamma stimulated HCC827 cells
T6 construct: whole, on cells; also called hPD-L1 expressed on HCC827; hPD-L1 on MC38/hPD-L1 cells
Protocol: Log phase IFN-γ stimulated (500U/ml for 2 days) HCC827 cells were collected and resuspended in blocking buffer (5% BSA+PBS). 2×10\hat{ }5 cells were added to each tube and then washed once with PBS (1500 rpm, 5 mins, RT). The 100 μl/tube serial diluted PD-L1 antibodies purified from hybridoma supernatant in blocking buffer were added into corresponding tubes and were incubated at 4° C. for 1 hr. The cells were then washed twice with 1 ml PBS, followed by adding 100 μl/tube of 2nd antibody (1:400 anti-mIgG (H+L)-PE, Cell signaling) in blocking buffer. The cells were incubated at 4° C. for 1 hr and then washed twice with PBS, followed by resuspending cells in 150 μl PBS for each sample. The cells were then transferred into FACS tube and the bindings of the antibodies to the cells were detected using flow cytometry (BD Accuri C6) (see FIG. 5A).

[9] = biological target: T2, Recombinant Mouse PD-L1/CD274 Protein …; test: ELISA, 20 ug/ml antibody on coated mouse PD-L1 (his-tagged per text, mPD-L1-Fc per sheet title)
How it was run: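 Wells coated overnight at 4 °C with 1 μg/ml mouse PD-L1-his, blocked 2 h with BSA/goat serum buffer; purified hybridoma mouse antibodies at 20 μg/ml bound 1 h at RT. Detection by HRP goat anti-mouse Fc (60 min, RT), TMB, acid stop, absorbance at 450 nm.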

hPD-L2-Fc = biological target: T7, hPD-L2-Fc (human, UniProt Q9BQ51 20-219); test: ELISA, plate coated with hPD-L2-Fc
T7 construct: Acrobiosystems PD2-H5251; also called human PD-L2 protein; not shown: Fc tag
T7 sequence (looked up): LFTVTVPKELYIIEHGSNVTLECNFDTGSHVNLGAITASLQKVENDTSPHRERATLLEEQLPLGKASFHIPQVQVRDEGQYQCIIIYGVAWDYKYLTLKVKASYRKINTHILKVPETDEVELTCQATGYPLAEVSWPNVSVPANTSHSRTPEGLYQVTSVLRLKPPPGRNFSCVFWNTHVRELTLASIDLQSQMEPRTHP

[10] = biological target: T3, Recombinant Human PD-L1/CD274 Protein …; test: ELISA, purified mouse antibody on coated hPD-L1-his
Protocol: High-binding clear polystyrene 96 well plates (Nunc) were coated with 100 μl/well of a 0.5 μg/ml hPD-L1-his in high pH coating buffer and incubated overnight 4° C. Then plates were washed once on an automatic plate washer using washing buffer (PBS+0.1% Tween 20 (Sigma)). 200 μl of blocking buffer (PBS+1% BSA+1% normal goat serum+0.05% Tween-20) was added to each well and incubated 2 hours at room temp. Then add serially diluted purified antibodies with dilution buffer (PBS+1% BSA+1% normal goat serum+0.01% Tween-20) and incubate for 1 hour at RT. The plates were then washed 3 times using the method described above. 100 μl/well of a solution of HRP conjugated goat anti-mouse Fc antibody (Abcam) in dilution buffer was then added to each well of the plate. After that the ELISA plates were allowed to incubate for 60 min at RT then plates were washed 3 times with 250 μl/well washing buffer. Finally, 100 μl/well of TMB was added to each well and was terminated using 0.64M H₂SO₄. The plates were read on a Thermo Multiscan FC at 450 nM (see FIG. 3).

[11] = biological target: T6, human PD-L1 expressed on cells; test: blocking FACS on HCC827 cells; blocked ligand: biotinylated hPD-1-N297A
Protocol: Log phase IFN-γ stimulated (500U/ml for 2 days) HCC827 cells were collected and resuspended in blocking buffer (5% BSA+PBS). 2×10\hat{ }5 cells were added to each tube and then washed once with PBS (1500 rpm, 5 mins, RT). […] The cells were incubated at 4° C. for 1 hr and then washed twice with PBS, followed by resuspending cells in 150 μl PBS for each sample.

[12] = biological target: T3, Recombinant Human PD-L1/CD274 Protein …; test: ELISA on coated hPD-L1-his; bound at pH7.4, then 2 h at pH7.4; remark: listed apart in the source
[13] = biological target: T6, human PD-L1 expressed on cells; test: FACS, IFN-gamma stimulated HCC827 cells; remark: listed apart in the source
Protocol: Log phase IFN-γ stimulated (500U/ml for 2 days) HCC827 cells were collected and resuspended in blocking buffer (5% BSA+PBS). 2×10\hat{ }5 cells were added to each tube and then washed once with PBS (1500 rpm, 5 mins, RT). The 100 μl/tube serial diluted biotinylated PD-L1 antibodies with blocking buffer were added into corresponding tubes and incubate at 4° C. for 1 hr.

[14] = biological target: T6, human PD-L1 expressed on cells; test: blocking FACS on HCC827 cells; blocked ligand: biotinylated hPD-1-N297A; remark: listed apart in the source
Protocol: Log phase IFN-γ stimulated (500U/ml for 2 days) HCC827 cells were collected and resuspended in blocking buffer (5% BSA+PBS). 2×10\hat{ }5 cells were added to each tube and then washed once with PBS (1500 rpm, 5 mins, RT). The 100 μl/tube serial diluted PD-L1 antibodies (see FIG. 8) with blocking buffer were added into corresponding tubes and incubate at 4° C. for 1 hr. […] After washing for three times with PBS, 100 μl/tube streptavidin-PE 1:200 (EBiosciences) in blocking buffer was added to each tube. The cells were incubated at 4° C. for 1 hr and then washed twice with PBS, followed by resuspending cells in 150 μl PBS for each sample. The cells were then transferred into FACS tube and the binding of the antibodies to the cells were detected with flow cytometry (ACEA Bioscience Novocyte).

[15] = biological target: T3, Recombinant Human PD-L1/CD274 Protein …; test: ELISA on coated hPD-L1-his
[16] = biological target: T3, Recombinant Human PD-L1/CD274 Protein …; test: ELISA on coated hPD-L1-his; bound at pH7.4, then 2 h at pH5.5; remark: listed apart in the source
[17] = biological target: T8, Human PD-L1/CD274 with C-Fc Tag (hPD-L1-Fc) (human, UniProt Q9NZQ7 19-238); test: blocking ELISA on coated hPD-L1-Fc; blocked ligand: biotinylated hPD-1-N297A
T8 construct: range 19-238; ACRO Biosystem PD1-H5258, made in HEK293; also called human PD-L1-Fc; not shown: Fc fragment of human IgG1 at C-terminus
T8 sequence (Q9NZQ7 19-238 limits assumed): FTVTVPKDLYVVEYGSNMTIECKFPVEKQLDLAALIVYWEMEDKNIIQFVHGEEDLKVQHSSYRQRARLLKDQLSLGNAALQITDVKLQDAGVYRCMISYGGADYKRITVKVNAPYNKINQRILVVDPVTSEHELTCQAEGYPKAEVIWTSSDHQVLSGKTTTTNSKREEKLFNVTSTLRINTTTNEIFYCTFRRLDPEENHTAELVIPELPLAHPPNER

T6 sequence (Q9NZQ7 19-290): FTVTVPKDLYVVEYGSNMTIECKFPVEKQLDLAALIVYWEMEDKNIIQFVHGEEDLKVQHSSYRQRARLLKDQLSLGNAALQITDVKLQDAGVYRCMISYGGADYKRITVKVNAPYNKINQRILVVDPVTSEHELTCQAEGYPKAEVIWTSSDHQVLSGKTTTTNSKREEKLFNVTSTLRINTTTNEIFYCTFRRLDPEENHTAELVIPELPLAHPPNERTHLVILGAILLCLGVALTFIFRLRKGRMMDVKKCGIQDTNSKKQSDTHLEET
T4 sequence (chain, as listed by the source limits assumed): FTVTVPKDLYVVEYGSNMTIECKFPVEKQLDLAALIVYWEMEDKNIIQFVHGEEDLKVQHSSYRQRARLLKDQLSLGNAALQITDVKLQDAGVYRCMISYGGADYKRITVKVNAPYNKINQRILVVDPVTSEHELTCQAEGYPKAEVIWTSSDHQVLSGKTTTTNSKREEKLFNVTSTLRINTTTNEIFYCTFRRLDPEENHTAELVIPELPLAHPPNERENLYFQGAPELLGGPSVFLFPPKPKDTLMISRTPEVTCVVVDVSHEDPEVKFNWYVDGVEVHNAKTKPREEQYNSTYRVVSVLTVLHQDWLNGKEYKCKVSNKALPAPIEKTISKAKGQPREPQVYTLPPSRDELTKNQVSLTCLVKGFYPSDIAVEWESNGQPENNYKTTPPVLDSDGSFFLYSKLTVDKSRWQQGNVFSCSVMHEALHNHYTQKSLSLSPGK
T5 sequence (chain, as listed by the source E58A E58A limits assumed): as the sequence (chain, as listed by the source limits assumed) above, with E40A counted along it
T3 sequence (Q9NZQ7 other isoform, or with tags, fused parts or gaps limits assumed): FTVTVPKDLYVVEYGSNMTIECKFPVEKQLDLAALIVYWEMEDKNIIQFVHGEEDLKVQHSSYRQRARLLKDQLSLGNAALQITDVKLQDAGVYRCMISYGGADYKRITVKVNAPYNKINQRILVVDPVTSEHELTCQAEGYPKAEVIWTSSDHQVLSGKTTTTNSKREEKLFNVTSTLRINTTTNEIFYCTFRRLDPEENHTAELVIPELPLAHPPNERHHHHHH
T2 sequence (Q9EP73 other isoform, or with tags, fused parts or gaps limits assumed): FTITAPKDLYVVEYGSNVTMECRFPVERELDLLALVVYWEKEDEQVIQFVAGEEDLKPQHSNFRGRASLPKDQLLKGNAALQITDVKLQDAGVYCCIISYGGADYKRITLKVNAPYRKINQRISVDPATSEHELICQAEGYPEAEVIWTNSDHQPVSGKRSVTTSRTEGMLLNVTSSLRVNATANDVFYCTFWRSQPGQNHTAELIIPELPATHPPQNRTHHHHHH

EC50 (read off the curve) [1]: ~0.01 µg/mL | binding result [2]: no binding (tested: 20 ug/ml) | EC50 (read off the curve) [3]: ~0.02 µg/mL | EC50 (read off the curve) [4]: ~0.01 µg/mL | EC50 (read off the curve) [5]: ~0.01 µg/mL
B1: 4B6-C (antibody, V domains shown)
VH: EVQLQQSGPELVKPGASVKISCKASGYVFTDYYMNWVKQSHGKSLEWIGDINPNNGGTSYNHKFKGKATVTVDKSSRTAYMELLSLTSEDSAVYYCVKWGDGPFAYWGQGTLVTVSA
VL: DIVMTQSQKFMSTSVGDRVSITCKASQNVGAAVAWYQQKPGQSPKLLIYSASNRYTGVPDRFTGSGSGTDFTLTISNMQSEDLADYFCQQYSNYPTFGSGTKLGIK
notes: Mouse variable regions fused to a human IgG1 constant region; also called 4B6-chimeric; chimeric antibody 4B6

Mean OD450 [6]: 1.92 OD450 | OD450 nM of sample-1 [6]: 1.9 OD450 | OD450 nM of sample-2 [6]: 1.94 OD450 | % of binding of Ab to E58A mutant vs. that to WT PD-L1 [7]: 17.2% | Mean OD450 [7]: 0.33 OD450 | OD450 nM of sample-1 [7]: 0.35 OD450 | OD450 nM of sample-2 [7]: 0.309 OD450 | EC50 (read off the curve) [8]: ~0.1 µg/mL | binding result [9]: no binding (tested: 20 ug/ml) | binding result (hPD-L2-Fc): no binding (tested: 2 ug/ml) | EC50 (read off the curve) [10]: ~0.08 µg/mL | IC50 (read off the curve) [11]: ~0.2 µg/mL
B2: 22C9 (antibody, V domains shown)
VH: QVQLQQSGAELVKPGASVKLSCKASGYTFTSYWMHWVWQRPGQGLEWIGMIHPNSDITNCNENFKHTVTLTVDKSSSTAYMQLSSLTSEDSAVFYCARSDGSSYWYFDVWGTGTTVTVSS
VL: SIVMTQTPKFLSVSAGDRVTITCKAGQSVNNDVAWYQQKPGQSPKLLIYYASNRYTGVPDRFTGSGYGTDFTFTISTVQAEDLAVYFCQQDFSSPLTFGAGTKLELK
notes: Mouse monoclonal from hybridoma; also called mouse monoclonal antibody 22C9

EC50 (read off the curve) [12]: ~0.02 µg/mL | EC50 (read off the curve) [13]: ~0.04 µg/mL | IC50 (read off the curve) [14]: ~0.04 µg/mL | EC50 (read off the curve) [15]: ~4 ng/mL | EC50 (read off the curve) [16]: ~0.03 µg/mL | IC50 (read off the curve) [17]: ~0.05 µg/mL
B3: 23F11-C (antibody, V domains shown)
VH: QVQLQQPGAELVKPGASVKLSCKASGYSFTTYWMHWVKQRPGQGLEWIGMIQPNSGGTKYNEKFKKKATLTVDKSSTTASMELSSLTSEDSAVYYCARGAGTVDYFDYWGQGSTLTVSS
VL: DIVLTHSPVSLAVSLGQRATISCRASESVDIYGNSFMHWYQQKPGQPPKLLIYRASNLESGIPARFSGSGSRTDFTLTINPVEADDVATYYCQQSTEDPYTFGGGTKLEIK
notes: Mouse variable regions fused to a human IgG1 constant region; also called 23F11-chimeric; chimeric antibody 23F11
